Laboratory results as given in PMC6205948, “Phage-Borne Depolymerases Decrease Klebsiella pneumoniae Resistance to Innate Defense Mechanisms” (Frontiers in Microbiology, 2018).

B1: KP32gp38 (enzyme, Klebsiella phage KP32, UniProt D1L2X1 1-576, looked up)
chain: MLDNFNQPKGSTIGVLKDGRTIQEAFDSLPRLESFSGSTATDKLRAAITLGVSEVAIGPVEGNGGRPYEFGDVVIPYPLRIVGCGSQGINVTKGTVLKRSAGASFMFHFTGEGQAQRPMGGGLFNINLNGDTATALGDIIKVTQWSYFKANNCAFQNMAGWGIRLKDVMESNISGNLFRRLGGPSGGGILFDDVRSAVTDNVNNLHIEDNTFALMSGPWIGSTANSNPDLIWIVRNKFEFDGTPAAPNTVDSYVLDFQQLSRAFIQDNGFTHFTTERNRYVGVLRVGATAVGTIKFEDNLLFACESAGLIAGGIVVSRGNVNNQGSATTAIKQFTNTSSKLCKLERVINVQSNGNVSVGQQILPDGYINMAELPGNTRLPSEYDADGETTSVLRVPANTQVRQWSVPKMYKDGLTVTKVTVRAKGAAAGAILSLQSGSTVLSTKSIDAGVWKNYVFYVKANQLQETLQLRNTGTADVLADGMVFGKVDYIDWDFAIAPGTLAAGAKYTTPNQSYLDVAGMRVQAVSIPMFDGPTTGLQVWVEATSANGSFVVVMKNDTGSELVTTVTRCRVRAFVS
notes: open reading frame cloned into pEXP5-CT/TOPO; runs at about 62 kDa on SDS-PAGE; The vector pEXP5-CT/TOPO adds a C-terminal His6 tag (surmised from the vector's name); also called hypothetical protein; K21 depolymerase

Experiments:
[1] = biological target: KP32gp37 (Klebsiella phage KP32) (UniProt D1L2X0); assay: SEC-MALS; purified protein in solution, native conditions; SEC coupled to a miniDAWN TREOS MALS detector and Optilab rEX; proteins dialyzed against PBS pH 7.4
[2] = biological target: the molecule itself; assay: as above

Molecule | stoichiometry N [1] | stoichiometry N [2]
KP32gp37 (from UniProt D1L2X0 1-869) (enzyme) | 3 | –
B1 | – | 3
